{"source": "paper PMC3981788", "about": "“Allele-specific Characterization of Alanine: Glyoxylate Aminotransferase Variants Associated with Primary Hyperoxaluria” (PLoS ONE, 2014)", "biological_target": "the molecule itself", "assay": "SEC; data not shown; 10 uM AGTmi E274D with 100 uM PLP, Sephacryl S-300 10/600 column, 100 mM potassium phosphate buffer pH 7.4, elution volume compared with molecular weight standards", "data": [{"protein": "alanine: glyoxylate aminotransferase, minor allele variant, E274D (enzyme, human, alanine: glyoxylate aminotransferase (AGT), human, minor allele (P11L, I340M) with the PH1-associated mutation E274D; SEC was run in the presence of 100 uM PLP (holo form); E274D was found in patients on the minor allele; also called AGTmi E274D; AGTmi^E274D; source: bacteria (pET30a), purified) MASHKLLVTPLKALLKPLSIPNQLLLGPGPSNLPPRIMAAGGLQMIGSMSKDMYQIMDEIKEGIQYVFQTRNPLTLVISGSGHCALEAALVNVLEPGDSFLVGANGIWGQRAVDIGERIGARVHPMTKDPGGHYTLQEVEEGLAQHKPVLLFLTHGESSTGVLQPLDGFGELCHRYKCLLLVDSVASLGGTPLYMDRQGIDILYSGSQKALNAPPGTSLISFSDKAKKKMYSRKTKPFSFYLDIKWLANFWGCDDQPRMYHHTIPVISLYSLRDSLALIAEQGLENSWRQHREAAAYLHGRLQALGLQLFVKDPALRLPTVTTVAVPAGYDWRDIVSYVMDHFDIEIMGGLGPSTGKVLRIGLLGCNATRENVDRVTEALRAALQHCPKKKL", "values": [{"measurement": "stoichiometry N", "result": 2}]}]}
